As usually defined, the stoichiometry N is the number of molecules, sites or subunits per partner or assembly.

From publication PMC5095912 come the findings set out here.

“And” between values parts separate entries of the source, which are not always exact repeats. Equal values may be shown once.

The experiment has as its target PKA regulatory subunit RIIα (UniProt P12367). In words: native MS; components mixed at equimolar (1:1) ratio in 200 mM NH4OAc, equilibrated at least 10 min at room temperature; nESI on a Synapt G2-Si, 2-5 uM sample; single proteins sprayed alone too; some C + R samples preincubated with staurosporine, K252a or AT13148 before PKI.

Take “PKA regulatory subunit RIIα (from UniProt P12367 1-401) (natural protein)”: the stoichiometry N is 3 and 4 and 2.
